{"source": "paper PMC10615762", "target": "prefusion-stabilized SARS-CoV-2 spike protein (S-clamp) (SARS-CoV-2)", "test": "SEC", "data": [{"substance": "prefusion-stabilized SARS-CoV-2 spike protein (S-clamp)", "values": [{"measurement": "stoichiometry N", "result": 3}]}]}
